Drawing on the supplement of paper PMC10567573, this text covers protein stability index for 72 sequences.

± gives the standard deviation.

The nature of the series: protein stability index of a GFP-peptide fusion (GPS, HEK-293T) (PSI 1-6); higher = more stable.
The mark [1] stands for this setting: treatment: DMSO, c terminus: a fixed tail appended.
The mark [2] stands for this setting: treatment: MLN4924 1 uM, 8 h, c terminus: a fixed tail appended.
[3] abbreviates: treatment: DMSO, c terminus: native.
The mark [4] stands for this setting: treatment: MLN4924 1 uM, 8 h, c terminus: native.
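Further: 24-mer peptide tiles fused after GFP, lentivirally expressed, FACS-sorted into six equal bins by GFP/DsRed ratio, decoded by Illumina sequencing, PSI is the read-weighted mean bin number.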

Regarding QRAKCKDPQLEIAYRGNCKDVSRC [SMOC2], the protein stability index was 3.85 ± 0.21 under setting [1] and 4 ± 0.14 under setting [2].

Turning to SSVTAAVSGLLVGYELGIISGALL [SLC2A12], the protein stability index is, setting by setting: under setting [1], 2.8 ± 0.2; under setting [2], 2.82 ± 0.18.

Consider MRLSWSVAQGPFDSFVVQYEDTNG [TNXB], for which the protein stability index came to 2.26 ± 0.17 under setting [1] and 2.21 ± 0.12 under setting [2].

With EEFAAGPAQSGILSDREVVNLFLH [BTBD1], the protein stability index under setting [1] turned out to be 3.16 ± 0.56 and the protein stability index under setting [2] turned out to be 3.46 ± 0.22.

For STQLEMQLEKPKPVKPVTFSTGIK [MNAT1], the protein stability index reads like this: under setting [1], 4.28 ± 0.16; under setting [2], 4.43 ± 0.22.

Sequence GQQDQVKLHDFFSYLMDHFIPSSH [PPEF2] had a protein stability index under setting [1] of 2.81 ± 0.57 and a protein stability index under setting [2] of 2.89 ± 0.71.

On to GKNLYTNEYVAIKLEPIKSRAPQL [CSNK1G1], for which the protein stability index is, setting by setting: under setting [1], 2.35 ± 0.032; under setting [2], 2.58 ± 0.13.

For GSPVNQQPKKNNVMARTRLVVPNK [FAM219A], the protein stability index reads like this: under setting [1], 4.17 ± 0.1; under setting [2], 4.33 ± 0.31.

With VAACAQTVVSLAAAGQPTPPTSPE [CEBPD], the protein stability index was 5 ± 0.78 under setting [1] and 5.29 ± 0.33 under setting [2].

Turning to FLDERLYCESHAKARVKPPEGYDV [PDLIM4], the protein stability index was found to be 2.78 ± 0.8 under setting [1] and 3.23 ± 0.93 under setting [2].

Take SQLRLVCKRMDLVCQRMLNQGFLK [FBXO28]: the protein stability index reads like this: under setting [1], 2.38 ± 0.42; under setting [2], 2.46 ± 0.2.

Turning to SSSSQIGNDSFQLQVTEDVNSSIK [CLCN6], the protein stability index is, setting by setting: under setting [1], 5.14 ± 0.06; under setting [2], 4.87 ± 0.18.

As to YFITLGTEIAEQEGNQKGEQATSL [KCNA1], the protein stability index is, setting by setting: under setting [1], 3.79 ± 0.1; under setting [2], 3.84 ± 0.24.

Take ELKCPVCGSFYREPIILPCSHNLC [TRIM9]: the protein stability index reads like this: under setting [1], 4.1 ± 0.29; under setting [2], 4.12 ± 0.32.

Regarding DNVRSLKVESGAWIGYEHTSFCGQ [CRYBA1], the protein stability index reads like this: under setting [1], 3.14 ± 0.2; under setting [2], 3.07 ± 0.22.

With DCRVDLGSEVYRMLREPAEPVAAE [PDLIM4], the protein stability index is, setting by setting: under setting [1], 4.67 ± 0.05; under setting [2], 4.76 ± 0.092.

As for LCEKFDYLYGILEERKNEMTQVIT [TRIM55], the protein stability index reads like this: under setting [1], 2.7 ± 0.15; under setting [2], 2.88 ± 0.4.

For QDKPYKCTDCGKSFNHNAHLTVHK [ZNF8], the protein stability index came out at 3.71 ± 0.27 under setting [1] and 3.72 ± 0.41 under setting [2].

For GYEVAAAQGPNKPGYLVGRNNANG [CPN1], the protein stability index is, setting by setting: under setting [1], 4.2 ± 0.14; under setting [2], 4.32 ± 0.21.

Take MEEQREALRKIIKTLAVKNEEIQS [FSD1]: the protein stability index is, setting by setting: under setting [1], 3.15 ± 0.1; under setting [2], 3.16 ± 0.27.

Regarding RGSIQSRYISMSVWTSPRRLVELA [PRAME], the protein stability index by setting is: under setting [1], 2.52 ± 0.24; under setting [2], 2.71 ± 0.3.

Consider DRGKDSVEILMILFAFMLVYPKEF [PPEF2], for which the protein stability index runs as follows: under setting [1], 2.97 ± 0.19; under setting [2], 2.71 ± 0.61.

Take MEGQRQESHATLTLAQAHFNNGEY [TTC32]: the protein stability index was found to be 4.42 ± 0.33 under setting [1] and 4.39 ± 0.18 under setting [2].

In the case of FGGVDGLLAGGEKATMQNLNDRLA [KRT17], the protein stability index turned out to be 3.5 ± 0.32 under setting [1] and 3.69 ± 0.26 under setting [2].

For the sequence GEAQPGLPQEDPSTSQGCAQPQGA [FEM1A], the protein stability index by setting is: under setting [1], 5.36 ± 0.21; under setting [2], 5.51 ± 0.13.

TKKRKLGKNPDVDTSFLPDRDREE [FAM50A] yielded a protein stability index under setting [1] of 5.18 ± 0.14 and a protein stability index under setting [2] of 5.23 ± 0.41.

Take PGGNLIVELARYLVDVRQEQLQGF [DNAAF3]: the protein stability index worked out at 2.9 ± 0.56 under setting [1] and 2.39 ± 0.14 under setting [2].

On to EKQKQPRWREGTKDSHDPLPSWAE [PBXIP1], for which the protein stability index runs as follows: under setting [1], 3.01 ± 0.51; under setting [2], 3.18 ± 1.1.

CYETLPRGQCLLYNWEEERATNHL [SPAG8]: the protein stability index is, setting by setting: under setting [1], 2.92 ± 0.16; under setting [2], 3.09 ± 0.23.

For the sequence LCNEISLSEIKDAPKVNAVDTLNV [DLC1], the protein stability index runs as follows: under setting [1], 3.77 ± 0.4; under setting [2], 3.81 ± 0.25.

As for ANTTPSGKSVSSSSSVETGPSVSE [SPATS1], the protein stability index is, setting by setting: under setting [1], 5.32 ± 0.23; under setting [2], 5.31 ± 0.23.

VMYRIGCLRDDVVFFIYLYQRWIY [CLPTM1]: the protein stability index was 2.93 ± 0.66 under setting [1] and 2.71 ± 0.32 under setting [2].

As to GAVLALVAIFIMSLNKRHSSGDGN [MFSD9], the protein stability index by setting is: under setting [1], 3 ± 0.21; under setting [2], 3.43 ± 0.59.

As for LPYQRRYRERRDSDTYRCEERSPS [CLK3], the protein stability index is, setting by setting: under setting [1], 4.77 ± 0.12; under setting [2], 4.81 ± 0.22.

As to SSSRNSHLVQHQHPNSRKSSAGGA [ZNF8], the protein stability index is, setting by setting: under setting [1], 4.71 ± 0.43; under setting [2], 4.83 ± 0.23.

Consider EQARAYAEKNCMTFFEVSPLCNFN [RAB40C], for which the protein stability index is 2.49 ± 0.31 under setting [1] and 2.38 ± 0.15 under setting [2].

On to ARELAITDSEHSDAEVSCTDNGTF [RETREG3], for which the protein stability index reads like this: under setting [1], 5.56 ± 0.28; under setting [2], 5.592 ± 0.033.

For ARLTGVNDKMAEYTNSAGVPSLNA [GOSR1], the protein stability index is, setting by setting: under setting [1], 3.83 ± 0.22; under setting [2], 4.01 ± 0.16.

Take DISMEIPQEFQKTVSTMYYLWMCS [SCAMP3]: the protein stability index under setting [1] was determined as 2.28 ± 0.54 and the protein stability index under setting [2] was 2.38 ± 0.39.

For QLWSNVTPLTFTKVSEGQADIMIS [MMP1], the protein stability index by setting is: under setting [1], 2.58 ± 0.24; under setting [2], 2.66 ± 0.43.

For RLVVEFPATGGAIPSWQIRTVKLI [PKD2L1], the protein stability index reads like this: under setting [1], 2.62 ± 0.53; under setting [2], 2.16 ± 0.36.

With EKRLQEIEELEREAERKIIEENIT [SRPK2], the protein stability index was 5.03 ± 0.33 under setting [1] and 5.39 ± 0.26 under setting [2].

In the case of GGQCCRRQDSPSPDFYKQSSPNLQ [PCDHGC5], the protein stability index stood at 3.77 ± 0.33 under setting [1] and 3.78 ± 0.23 under setting [2].

For VPSEWLSSVYKQQWFAMLRAEQDS [GMCL1], the protein stability index worked out at 2.47 ± 0.19 under setting [1] and 2.43 ± 0.17 under setting [2].

For the sequence GKLKCDICGIICIGPNVLMVHKRS [IKZF1], the protein stability index reads like this: under setting [1], 2.91 ± 1.6; under setting [2], 2.26 ± 0.75.

Consider IIPRTVIDGLDLLKKEHPGARDGI [SMG5], for which the protein stability index is 3.2 ± 0.31 under setting [1] and 3.39 ± 0.23 under setting [2].

As to EIGTSDQIVPEYQEDSDISSFFC [TRIB1], the protein stability index runs as follows: under setting [3], 3.38 ± 0.66; under setting [4], 4.22 ± 0.82.

For the sequence VSISISGSSRPCLDFLQEVTRQPR [ASB7], the protein stability index is 1.93 ± 0.48 under setting [1] and 2.05 ± 0.3 under setting [2].

For the sequence LFFAVGIAQYALLGYFIRSWRTLA [SLC22A15], the protein stability index runs as follows: under setting [1], 3.3 ± 0.34; under setting [2], 3.18 ± 0.26.

For SHHHHQSRGACTSHDPQSSRGSRR [KCNA4], the protein stability index is 5.11 ± 0.26 under setting [1] and 5.13 ± 0.15 under setting [2].

With RRSQQQQVPVVDFQAELRQAFLAE [SNURF], the protein stability index is, setting by setting: under setting [1], 3.84 ± 0.37; under setting [2], 3.86 ± 0.28.

As for YFTDTDELQLEAANETYENNFDNL [ATF6], the protein stability index came to 4.66 ± 0.14 under setting [1] and 4.337 ± 0.033 under setting [2].

Consider MSSQVVGIEPLYIKAEPASPDSPK [ESRRA], for which the protein stability index was found to be 4.86 ± 0.12 under setting [1] and 4.89 ± 0.095 under setting [2].

Turning to GVCIRRCTVLRDARIRSHSWLESC [GMPPB], the protein stability index is, setting by setting: under setting [1], 2.31 ± 0.35; under setting [2], 2.15 ± 0.12.

VISCTIFIVGMVGNATLLRIIYQN [EDNRA] yielded a protein stability index under setting [1] of 3.11 ± 0.14 and a protein stability index under setting [2] of 2.29 ± 0.12.

Sequence MGVSSVIHPKNPHAPTIHFNYRYF [CPOX] yielded a protein stability index under setting [1] of 2.16 ± 0.35 and a protein stability index under setting [2] of 2.12 ± 0.18.

TEQAVALLRDRTGQQSDTAQLELY [SCARA5] came in with a protein stability index under setting [1] of 4.61 ± 0.16 and a protein stability index under setting [2] of 4.42 ± 0.25.

The sequence LSPLRAASDPLLSSVSPAVSKASS [TFE3] gave a protein stability index under setting [1] of 4.47 ± 0.18 and a protein stability index under setting [2] of 4.68 ± 0.067.

Take RRFQQTQYLALPERAELAASLGLT [DLX1]: the protein stability index under setting [1] was 2.95 ± 0.21 and the protein stability index under setting [2] was determined as 3.12 ± 0.099.

Take NEEIQSFIYSLKQMLLNVEANSAK [FSD1]: the protein stability index is 2.99 ± 0.73 under setting [1] and 2.72 ± 0.38 under setting [2].

As for NWPARQRGTHAVVGVATARAPLHS [SPSB4], the protein stability index under setting [1] was found to be 3.52 ± 0.19 and the protein stability index under setting [2] is 3.57 ± 0.27.

Turning to RYPVCKFPSLQVTAILIECGADVN [FEM1C], the protein stability index was found to be 2.71 ± 0.72 under setting [1] and 2.65 ± 0.61 under setting [2].

In turn, AAPGVDLTRVLAEMREQYEAMAEK [KRT15] came in with a protein stability index under setting [1] of 4.57 ± 0.32 and a protein stability index under setting [2] of 4.35 ± 0.086.

On to DEDELRKSLSELVDDKFGTGTKKV [PSD2], for which the protein stability index under setting [1] worked out at 5.2 ± 0.15 and the protein stability index under setting [2] worked out at 5.4 ± 0.21.

As for PVCYQCLEEGKHSSHEVKALGAMW [TRIM9], the protein stability index is, setting by setting: under setting [1], 2.64 ± 0.35; under setting [2], 2.76 ± 0.32.

LLRDQFVKALEDFEDLCDRVFSDE [FAM9B]: the protein stability index worked out at 2.97 ± 0.29 under setting [1] and 3.17 ± 0.38 under setting [2].

Regarding PLLPAPPKTPMDGADCGIQWWNAV [LYSMD4], the protein stability index reads like this: under setting [1], 3.48 ± 0.42; under setting [2], 3.62 ± 0.21.

Turning to SELQKELKKVKTAHSNDGDCKTQ [DPCD], the protein stability index turned out to be 4.94 ± 0.27 under setting [3] and 5.28 ± 0.14 under setting [4].

Take PCGKYNAMVLELLGPSLEDLFDLC [CSNK1G1]: the protein stability index reads like this: under setting [1], 2.69 ± 1.2; under setting [2], 2.21 ± 0.5.

The sequence TIQQEKLLAEKEEKLQKEQKELQD [SASS6] yielded a protein stability index under setting [1] of 5.52 ± 0.31 and a protein stability index under setting [2] of 5.54 ± 0.23.

SMPQKFLGDKGLSDTPYDSSASYE [IKZF1]: the protein stability index under setting [1] is 4.74 ± 0.088 and the protein stability index under setting [2] was found to be 4.73 ± 0.34.

Take QATLPVGSPSRPLSRRQLCPLTPG [C2CD2L]: the protein stability index was 3.61 ± 0.33 under setting [1] and 3.74 ± 0.14 under setting [2].
